Experimental data: article PMC11225919

Molecular target: T1, Fur (6xHis-tagged) (Salmonella enterica serovar Infantis 119944) (UniProt A0A4Z0KGQ7)
T1 sequence: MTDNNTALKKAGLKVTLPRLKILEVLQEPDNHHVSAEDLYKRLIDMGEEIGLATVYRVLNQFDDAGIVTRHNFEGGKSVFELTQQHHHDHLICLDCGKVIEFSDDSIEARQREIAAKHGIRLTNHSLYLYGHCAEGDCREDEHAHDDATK
Test: EMSA

## CCGGGGTCGCGCCCCCATAAACGCCTCCCTGACAGAGGCCCGGATACCCCATCCGGGCCTCTGTTCTTTCCGCCTGTTACCAACCCGAAACGGGCATAAATAAACCCGTTTCGGGTAGCATACAATTGTTAATAATTATTATTCTCATATGAGCAATGCTTTTCGGTAAGACGTGCCATCAGGAGGAAGA (double strand) [irp2 promoter (pESI)]
  binding: binds
